# Test results published in patent publication US6329339A, “Pharmaceutical antiviral composition comprising glycyrrhizic acid and at least one protein endowed with antiviral activity” (priority 1997, dated 2001).
# B1: Bovine lactoferrin: bovine lactoferrin; lactoferrin supplied by SIGMA (protein, UniProt P24627 20-708, looked up)
# Lactotransferrin: APRKNVRWCTISQPEWFKCRRWQWRMKKLGAPSITCVRRAFALECIRAIAEKKADAVTLDGGMVFEAGRDPYKLRPVAAEIYGTKESPQTHYYAVAVVKKGSNFQLDQLQGRKSCHTGLGRSAGWIIPMGILRPYLSWTESLEPLQGAVAKFFSASCVPCIDRQAYPNLCQLCKGEGENQCACSSREPYFGYSGAFKCLQDGAGDVAFVKETTVFENLPEKADRDQYELLCLNNSRAPVDAFKECHLAQVPSHAVVARSVDGKEDLIWKLLSKAQEKFGKNKSRSFQLFGSPPGQRDLLFKDSALGFLRIPSKVDSALYLGSRYLTTLKNLRETAEEVKARYTRVVWCAVGPEEQKKCQQWSQQSGQNVTCATASTTDDCIVLVLKGEADALNLDGGYIYTAGKCGLVPVLAENRKSSKHSSLDCVLRPTEGYLAVAVVKKANEGLTWNSLKDKKSCHTAVDRTAGWNIPMGLIVNQTGSCAFDEFFSQSCAPGADPKSRLCALCAGDDQGLDKCVPNSKEKYYGYTGAFRCLAEDVGDVAFVKNDTVWENTNGESTADWAKNLNREDFRLLCLDGTRKPVTEAQSCHLAVAPNHAVVSRSDRAAHVKQVLLHQQALFGKNGKNCPDKFCLFKSETKNLLFNDNTECLAKLGGRPTYEEYLGTEYVTAIANLKKCSTSPLLEACAFLTR
# B2: turkey lysozyme: turkey lysozyme (protein, UniProt P00703 19-147, looked up)
# Lysozyme C: KVYGRCELAAAMKRLGLDNYRGYSLGNWVCAAKFESNFNTHATNRNTDGSTDYGILQINSRWWCNDGRTPGSKNLCNIPCSALLSSDITASVNCAKKIASGGNGMNAWVAWRNRCKGTDVHAWIRGCRL
# B3: Human lactoferrin: human lactoferrin; lactoferrin supplied by SIGMA (protein, UniProt P02788 20-710, looked up)
# Lactotransferrin: GRRRSVQWCAVSQPEATKCFQWQRNMRKVRGPPVSCIKRDSPIQCIQAIAENRADAVTLDGGFIYEAGLAPYKLRPVAAEVYGTERQPRTHYYAVAVVKKGGSFQLNELQGLKSCHTGLRRTAGWNVPIGTLRPFLNWTGPPEPIEAAVARFFSASCVPGADKGQFPNLCRLCAGTGENKCAFSSQEPYFSYSGAFKCLRDGAGDVAFIRESTVFEDLSDEAERDEYELLCPDNTRKPVDKFKDCHLARVPSHAVVARSVNGKEDAIWNLLRQAQEKFGKDKSPKFQLFGSPSGQKDLLFKDSAIGFSRVPPRIDSGLYLGSGYFTAIQNLRKSEEEVAARRARVVWCAVGEQELRKCNQWSGLSEGSVTCSSASTTEDCIALVLKGEADAMSLDGGYVYTAGKCGLVPVLAENYKSQQSSDPDPNCVDRPVEGYLAVAVVRRSDTSLTWNSVKGKKSCHTAVDRTAGWNIPMGLLFNQTGSCKFDEYFSQSCAPGSDPRSNLCALCIGDEQGENKCVPNSNERYYGYTGAFRCLAENAGDVAFVKDVTVLQNTDGNNNEAWAKDLKLADFALLCLDGKRKPVTEARSCHLAMAPNHAVVSRMDKVERLKQVLLHQQAKFGRNGSDCPDKFCLFQSETKNLLFNDNTECLARLHGKTTYEKYLGPQYVAGITNLKKCSTSPLLEACEFLRK
# B4: human lysozyme: human lysozyme (protein, UniProt P61626 19-148, looked up)
# Lysozyme C: KVFERCELARTLKRLGMDGYRGISLANWMCLAKWESGYNTRATNYNAGDRSTDYGIFQINSRYWCNDGKTPGAVNACHLSCSALLQDNIADAVACAKRVVRDPQGIRAWVAWRNRCQNRDVRQYVQGCGV
# What was measured:
# HSV1 [1] = experiment: Inhibition of HSV1 viral plaques on VERO cells; assay type: cell-based, Herpes Simplex Virus type 1; details: for MDI50 (dose inhibiting 50% of the viral plaques on VERO cells): HSV1; for Inhibition (%) of viral plaques with various lysozymes: percentage of the control ± standard deviation
# VERO cells = experiment: Toxicity expressed as a minimum toxic dose on 50% of the cells; assay type: cell-based, African green monkey
# Method: It was carried out as Example 1 except that different amounts of bovine and human lactoferrin were added to the single layers of VERO cells infected with HSV1.
# *Toxicity expressed as a minimum toxic dose on 50% of the cells.
# HSV1 [2] = details: Current Microbiology 1984; cited from earlier work
molecule,measurement,setting,value
B1,MDI50 (dose inhibiting 50% of the viral plaques on VERO cells),HSV1 [1],0.25 mg/mL
same,MTD50 (minimum toxic dose on 50% of the cells),VERO cells,2 mg/mL
B2,Inhibition (%) of viral plaques with various lysozymes,HSV1 [1]; 0.5 mg/ml,10 ± 3%
same,Inhibition (%) of viral plaques with various lysozymes,HSV1 [1]; 1 mg/ml,45 ± 5%
same,Inhibition (%) of viral plaques with various lysozymes,HSV1 [1]; 2 mg/ml,55 ± 6%
same,Inhibition (%) of viral plaques with various lysozymes,HSV1 [1]; 4 mg/ml,68 ± 5%
same,Inhibition (%) of viral plaques with various lysozymes,HSV1 [1]; 6 mg/ml,80 ± 4%
same,Inhibition (%) of viral plaques with various lysozymes,HSV1 [1]; 8 mg/ml,89 ± 5%
same,antiviral / anti-herpetic (HSV1) activity of lysozymes,HSV1 [2],anti-herpetic (HSV1) activity
B3,MDI50 (dose inhibiting 50% of the viral plaques on VERO cells),HSV1 [1],0.25 mg/mL
same,MTD50 (minimum toxic dose on 50% of the cells),VERO cells,3 mg/mL
B4,Inhibition (%) of viral plaques with various lysozymes,HSV1 [1]; 0.5 mg/ml,18 ± 3%
same,Inhibition (%) of viral plaques with various lysozymes,HSV1 [1]; 1 mg/ml,45 ± 3%
same,Inhibition (%) of viral plaques with various lysozymes,HSV1 [1]; 2 mg/ml,59 ± 4%
same,Inhibition (%) of viral plaques with various lysozymes,HSV1 [1]; 4 mg/ml,70 ± 4%
same,Inhibition (%) of viral plaques with various lysozymes,HSV1 [1]; 6 mg/ml,79 ± 6%
same,Inhibition (%) of viral plaques with various lysozymes,HSV1 [1]; 8 mg/ml,90 ± 5%
same,antiviral / anti-herpetic (HSV1) activity of lysozymes,HSV1 [2],anti-herpetic (HSV1) activity
